{"source": "paper PMC9001700", "assay_in_all_cases": "BLI", "key": {"[1]": {"biological_target": "SARS-CoV-2 stem helix peptide 1145-1167 (SARS-CoV-2)"}, "[2]": {"biological_target": "HCoV-OC43 stem helix peptide (HCoV-OC43)"}, "[3]": {"biological_target": "MERS-CoV stem helix peptide (MERS-CoV)"}, "[4]": {"biological_target": "HCoV-HKU1 stem helix peptide (HCoV-HKU1)"}, "[5]": {"biological_target": "OC43 stem helix peptide (HCoV-OC43)"}, "[6]": {"biological_target": "MERS-CoV stem helix peptide (MERS-CoV)", "remark": "listed apart in the source"}, "[7]": {"biological_target": "SARS-CoV-2 stem helix peptide 1145-[…]-1167 (SARS-CoV-2)"}, "[8]": {"biological_target": "HKU1 stem helix peptide (HCoV-HKU1)"}}, "note": "Like-named read-outs stand apart in the source and are kept apart here.", "data": [{"substance": "CV3-25 Fab", "values": [{"measurement": "Kd", "setting": "[1]", "value": 5.2, "unit": "nM"}, {"measurement": "Kd", "setting": "[2]", "value": 40, "unit": "nM"}, {"measurement": "Kd", "setting": "[3]", "value": 20, "unit": "nM"}, {"measurement": "Kd", "setting": "[4]", "value": 31, "unit": "nM"}, {"measurement": "Kd", "setting": "[5]", "value": 39.3, "unit": "nM"}, {"measurement": "koff", "setting": "[5]", "value": 0.000613, "unit": "s⁻¹"}, {"measurement": "kon", "setting": "[5]", "value": 17000, "unit": "M⁻¹ s⁻¹"}, {"measurement": "Kd", "setting": "[6]", "value": 20.4, "unit": "nM"}, {"measurement": "koff", "setting": "[6]", "value": 0.000669, "unit": "s⁻¹"}, {"measurement": "kon", "setting": "[6]", "value": 33000, "unit": "M⁻¹ s⁻¹"}, {"measurement": "Kd", "setting": "[7]", "value": 5.23, "unit": "nM"}, {"measurement": "koff", "setting": "[7]", "value": 0.000159, "unit": "s⁻¹"}, {"measurement": "kon", "setting": "[7]", "value": 30000, "unit": "M⁻¹ s⁻¹"}, {"measurement": "Kd", "setting": "[8]", "value": 31, "unit": "nM"}, {"measurement": "koff", "setting": "[8]", "value": 0.000676, "unit": "s⁻¹"}, {"measurement": "kon", "setting": "[8]", "value": 23000, "unit": "M⁻¹ s⁻¹"}]}]}
